Test: soluble on expression in E. coli; label from the status in PepcDB or PDB records

Row | Sequence | soluble on expression in E. coli
1 | GPGSMSLIFFCIIPHPFTRTKCSKVSIIMQMLAPGAFFNALKVRGVTHFFGVPDPILKYFCAFVASHTTPKEHIITANEGNAVAMAAGYHLATGGLPLVYMKNSGLGDALNPLISLTHAEACSIPMFIVVGWRGAPDAGNELPCAAEGRLTEGILRAAEVPYIILSSACGNGEQSMETALDMALKHVHNSRTPYAFLVPPNFFEECAYEGVGEGIAELPMTRREAVEQALRQIDRGDIVVGAASFLAREIFEVQECAGMRHGPQFFPVGSMGHCSSVAAGIALAKPERQVFCFDGDGAFLMHMGSSATIGGVAAIHLIGTGETSLMRNYKHVVFNNGSHDSAGGQPTVSFDVSLTQVASACGFRTVREEPVMDLGETVRALQELKKAEGPAFLEVFVRRGGHSNPQCELPSLDESKQALTNCLRG | not soluble
2 | GPGSMSNIKKVQTEADRLLKKVNEGLDAYDELHEKLANAPNASAKERLEGDLKRELKKLQRHREAMKSFMQNDDYKEKMKMQVSRKKIEERMETFRAIEREMKTKAFSNEGLASAALERADSATEQWLKDAIEEGRKKIELLEYEVQKANNGRVRRGKQQKSEYQIRLENLQTHFFKWESLLRMVNNEELDTDEVDDLQEPIQKVLEDDVDLDVMEDMSIYDSFDIPEPKAKPVVPFDVSDYEDKKVQSPKTTAKAKTPTSTVQAKPSPFITSPKETAASPPAAKAASSTPVPSSMQQPALAQAPQQQLLPPTANSPADDDIGEEEPVPEWMDDDMDTANDDTFGDAAMSGGFTIGSLAEMASATNKVTQDWEKSQKPVGSLEPKTVKVTDPVHGAPEEKRKPTPPVAAPTPNAWERRAAEQQSRQKVQQQQQKQAPEAASPVAPLGPVAAAAEASAPEAVTTSLINPVAATSPSTPAGSANTDPIQPFPPIPGAAPGSKFTPKKIHELLDMSLGNLPHTLDVQRQRPYEPPNAIDAIPYFPQEVLPVLSNKDVYHQMDLDTLFFIFYYHQKSYQQYFAAKELKARSYRYHTKQQRWYQRLERPQTTTETEERGSYTFFDFEDKWDHDRIDDFLFEYKYLENELH | soluble
3 | GPGSMSSCTHPTSALFVDRQNGRTTCTICGDVVTTDQYELDPIFAQGGRQPASGGGLRGLAGSFRPATSYKGTHTGVIHSHSRPTIDKARREMLNISRQLEISEDTVERALGIYKVALNLNAVSGTRPSVLCACLYAACRRERTSHVIYDFSEINGEDPHTILSQMKYICHATHTEVPVIDPSCYVQRFAEQMDLGPQTTDVVVCALKVLRAMQDDWISCGRRPMGVCAAALLVACYVFGISRTPEQVCGMVRLTSNTIGKRLTEFAATPTARLENIDDYQPSHETLPPAFNDSSRKSTEEDVHASMRELSAIFYELVSEAKTSQPATPERCDKWRRFIMKHCELEGITPLEENLDLKGLPPAQQLHILGLPHTKPIPLEEVARSVKREEHRLLVKREASLQNGSDAGGSMSGARQGAVAGLLNNADVSSNGIPLYLLPDESLASSLAQASPAMGYADDGGMHSSSAAVGAASMDSPEQLRWMTDEYTRLLNSNAEVMHLRNDFDFADEDDANGAGGSSGGGAVAPPVSHPTQNQPFSCGLSQLRGGSPPPGTPAEEDPFGFFDRDDEGTRLALEEILYDRERRHALPWEFLVLPRVEEDDCTDILSYLVLDNEERLRRERIGVSLYGEKWKRGRARTDEEIQKLEEARASKRRRRSVIAEPAVDVPTAMERALRGRGAGTVNISQIGELLPGMLEFLEDEPQADWD | not soluble
4 | GPGSMSSSDQFLVDELRSRLKRRRADIVRYLDGLFYEDCRRIIECVSELDSDNLFLRNPSSLPDYAQHVTRPMYWELIQRKLQRYEYRAAADFMADMRAVVNNCYLYNGIQAPASKLARAIEVLMEDRFVTELRAAPVQPAEVK | not soluble
5 | GPGSMSVRIRFILTGACPPSYSGKQVQLNFPLEDENGAPTTTAHLKQLIRTQWPENMSEMKEVVEKTEMRVLKTGNLLSDDTQIRSVLTATELSECSINPSAEGSGRADEDQKSVLMHLVFQSNQSQGRQRDGSAGGGRRDNASHDSGCCTML | soluble
6 | GPGSMTDFYSLIPSAPKGRFDGIERAHTAEDVKRLRGSVEIKYSLAEMGANRLWKLIHEEDFVNALGALSGNQAMQMVRAGLKAIYLSGWQVAADANTASAMYPDQSLYPANAGPELAKRINRTLQRADQIETAEGKGLSVDTWFAPIVADAEAGFGDPLDAFEIMKAYIEAGAAGVHFEDQLASEKKCGHLGGKVLIPTAAHIRNLNAARLAADVMGTPTLIVARTDAEAAKLLTSDIDERDQPFVDYEAGRTAEGFYQVKNGIEPCIARAIAYAPYCDLIWMETSKPDLAQARRFAEAVHKAHPGKLLAYNCSPSFNWKKNLDDATIAKFQRELGAMGYKFQFITLAGFHQLNYGMFELARGYKDRQMAAYSELQQAEFAAEADGYTATKHQREVGTGYFDAVSLAITGGQSSTTAMKESTETAQFKPAAE | soluble
7 | GPGSMTHDSRTPQGKSRVSGGSSCFPSGYLNNESFDLNSETDHVSANSSTCHPAESYHLLLPRELQTPAQHFTTPEIPEISSHSPLCSALFSSVTEMQHQSVLEVGVASDQGIRSSMEDEHVTVVEPEVCFFGIYDGHGGRQCAEYVRARLHEITLAHECLKTDPRKAISDAFAQVEREFLGQNTNDMSSAGCVCAAAVVQGSVLTVGNVGDCEVVLARAGQPVLLTVKHNPSCNDAEATRVKKAGGCIFNCRVGHPRFNPRMCSLAVSRAVGDAGFKLEEYTNGKPSGIIAVADTSEVLLAKDDEFLILACDGLWDTMSYAEAVELATAYMASGADANSVADQLVGEALRRGTRDNVTAIFVRLGGSAQAGLGDANK | not soluble
8 | GPGSMVACTRLRRTQKVAKQKTETASNSHPRTSFLRRGRSTDCDIGALHVAATRVTLSVSHYATLLEGSVICVCFGFRLAAAAATNQLASSRLYRVPFAPLTSGLTNEKVLLRWSVAMSRKDAERKLTEDDCLTSSQQYDPQLIFYVPLRRKGYQAIDASAFVRCGGLRVVDISGNRLSTLSGLESVAPQLTFLNAAENSLHDIGALVTCAALERCMLEGNKLASVDSLQPLVSLPCLAELVLQRHVPLDDAAIGSGSPEQSSDKLLLLDNPVCRDAVAYREHFLAKMSHVRWVDGVSTYLRASSLAESTTTESHDAKENSTKAIVDAAIRSFQSIRVQMTATVSEETTLRHQLERAADRCKPSTVTVAARTP | not soluble
9 | GPGSMWDVVSRVGKAAYRTAALTGLAAGTEQPPYPCALPLKTVSSDSDVDSMREVLNSAFDASKDMLENNGEHQWQLVDYVDPEEGGDLHLFTRPRVGPFNFVKATLSFMGVSPQNVLDTMHSDNADDRKRYSANLSHFEVLAKPMAGCAIELHKYWAPPPVAGREFVFAAEKKYVESENVYYVHGCSIDYTPQMETSKGFVRAACLWAWKLMPVGDNTLATYVSCMNPRGWTPPFIFGWLKSEIGKELVACRRVLYGETVKVERTTLQGMGLSDEVNNLTDEERKRMSEGEPQPEAS | soluble
10 | GPGSMYVGCVGKDKHGDQIRSAAEADGTTMELEVSSDKRSGLCVVCRDGNSRTLVVHPSSASSLRDDFVSSAAAQEGQRSAKTVYTTAYASVVRVRQTLQLMTSSRCHTLPDGLKQLAAMGLANQRVLDDFGEGLVDVLGKLDIIIGNPEEMYDLAMMLQWVPSEMSDMVLAKKIATEMMCDRHGVRRVIMTRGAEPIIYAASAGESGEVPVVATCAHSAKLLATGAGDAFAGGFLAAMAAKPDDVAFCCRLSAQAATFMINHSLVTLRTDEACLAELQT | not soluble
11 | GPGSTRCQRERLLYVRRFDPVRGYHLRAAEDISVGTIIFQDECRPVRLCTKPYALQHFSKADYVDFQHNAWPVGRDGHYYALWDHDPAQWRAFNHSCEPNMSFAPMRSLDVVALRNIPKGEELTMDYRQFMDSTMPGFQCNCGTEKCEGFVSPGSLVDSPTAKIASQPTVALRHNIAVRLNPI | not soluble
12 | GPLGSDDVEWVVGKDKPTYDEIFYTLSPVNGKITGANAKKEMVKSKLPNTVLGKIWKLADVDKDGLLDDEEFALANHLIKVKLEGHELPADLPPHLVPPSKRRHE | soluble
13 | GPLGSKNMLLEWCRAMTRNYEHVDIQNFSSSWSSGMAFCALIHKFFPEAFDYAELDPAKRRHNFTLAFSTAEKLADCAQLLEVDDMVRLAVPDSKCVYTYIQELYRSLVQKGLVKTKKK | soluble
14 | GPLGSLYAIVLYDFKAEKADELTTYVGENLFICAHHNCEWFIAKPIGRLGGPGLVPVGFVSIIDIATGYATGNDVIEDIKSVNLPTVQEWKSNIARYKASNISLGSVE | soluble
15 | GPLGSPEFMEGVLYKWTNYLTGWQPRWFVLDNGILSYYDSQDDVCKGSKGSIKMAVCEIKVHSADNTRMELIIPGEQHFYMKAVNAAERQRWLVALGSSKASLTDTRT | soluble
16 | GPMELAHREYQAGDFEAAERHCMQLWRQEPDNTGVLLLLSSIHFQCRRLDRSAHFSTLAIKQNPLLAEAYSNLGNVYKERGQLQEAIEHYRHALRLKPDFIDGYINLAAALVAAGDMEGAVQAYVSALQYNPDLYCVRSDLGNLLKALGRLEEAKACYLKAIETQPNFAVAWSNLGCVFNAQGEIWLAIHHFEKAVTLDPNFLDAYINLGNVLKEARIFDRAVAAYLRALSLSPNHAVVHGNLACVYYEQGLIDLAIDTYRRAIELQPHFPDAYCNLANALKEKGSVAEAEDCYNTALRLCPTHADSLNNLANIKREQGNIEEAVRLYRKALEVFPEFAAAHSNLASVLQQQGKLQEALMHYKEAIRISPTFADAYSNMGNTLKEMQD | soluble
17 | GQDQRRRRIVSRRIYKRIMLKPHYLSIPEAQLEAMNNIQLNPIMKLINNNSDSPVMLSSPPDIFTAGKDMFDCFFRDIEAARHHVHIQFYVIEDDHLGSRLSDLLIRKVQEGVKVRVIFDHVGSWATGRGYWKRLRRAGVEAYPFMPVFFPILSSRVNYRNHRKVAVIDGKIGYLGGMNVADRYYSGNRLGLWRDTHFRMMGNVVAGLQSSFLLDWYVVSRRVINLSGYYPDLPIPVSDEGVKIQLVRSGPVGQWRTIEQATIYCIERACEHVYIETPYFLPTEGLN | not soluble
18 | GSESGLRYAYTLVVDGTANTARCFGTGHVDGEAFVGYSNNKTHGIGRWVNASHVEEENKEFVRQCKELQAELDKMQNNSAVIGVKTVQLDVGCTSKIEKHYAYDGNETEDDTATSASERARDCQKKLTEYRKLVLASAVSPQLEVERRSSGREGGMRLRCFARDYYPADLEIRWWKDDGGGGALPQTSKQHHDPLPSGQGLYQKHIDVYVDGGLEHVYSCRVKGIATGLELQIVRWKG | soluble
19 | GSHMAGLPRRIIKETQRLLAEPVPGIKAEPDESNARYFHVVIAGPQDSPFEGGTFKLELFLPEEYPMAAPKVRFMTKIYHPNVDKLGRICLDILKDKWSPALQIRTVLLSIQALLSAPNPDDPLANDVAEQWKTNEAQAIETARAWTRLYAMNNI | soluble
20 | GSHMEAPILYEDPPEKLTSKDGRAANMKITSWNVDGLRAWVKKNGLDWVRKEDPDILCLQETKCAEKALPADITAMPEYPHKYWAGSEDKEGYSGVAMLCKTEPLNVTYGIGKEEHDKEGRVITAEFPDFFLVTAYVPNASRGLVRLDYRKTWDVDFRAYLCGLDARKPLVLCGDLNVAHQEIDLKNPKGNRKNAGFTPEEREGFTQLLEAGFTDSFRELYPDQAYAYTFWTYMMNARSKNVGWRLDYFVLSSALLPGLCDSKIRNTAMGSDHCPITLFLAV | soluble
21 | GSHMNTLKKAFEILDFIVKNPGDVSVSEIAEKFNMSVSNAYKYMVVLEEKGFVLRKKDKRYVPGYKLIEYGSFVLRRFNIRDIAHDHLVDIMKRTGETVHLILKDGFEGVYIDKVEGEQSIPMVSRLGMKVDLYSTASGKSILAFVPEKELKEYLKIVELKPKTPNTITNPRVLKRELEKIRKRGYAVDNEENEIGIMCVGVPIFDHNGYPVAGVSISGVARKFTEEKIEEYSDVLKEKAEEISRKLGY | soluble
